# Results reported in a protein production outcome set (Wang et al. 2014).
# Assay: label from the status in PepcDB records
row,Sequence,protein production
1,MPPKTPRKTAATAAAAAAEPPAPPPPPPPEEDPEQDSGPEDLPLVRLEFEETEEPDFTALCQKLKIPDHVRERAWLTWEKVSSVDGVLGGYIQKKKELWGICIFIAAVDLDEMSFTFTELQKNIEISVHKFFNLLKEIDTSTKVDNAMSRLLKKYDVLFALFSKLERTCELIYLTQPSSSISTEINSALVLKVSWITFLLAKGEVLQMEDDLVISFQLMLCVLDYFIKLSPPMLLKEPYKTAVIPINGSPRTPRRGQNRSARIAKQLENDTRIIEVLCKEHECNIDEVKNVYFKNFIPFMNSLGLVTSNGLPEVENLSKRYEEIYLKNKDLDARLFLDHDKTLQTDSIDSFETQRTPRKSNLDEEVNVIPPHTPVRTVMNTIQQLMMILNSASDQPSENLISYFNNCTVNPKESILKRVKDIGYIFKEKFAKAVGQGCVEIGSQRYKLGVRLYYRVMESMLKSEEERLSIQNFSKLLNDNIFHMSLLACALEVVMATYSRSTSQNLDSGTDLSFPWILNVLNLKAFDFYKVIESFIKAEGNLTREMIKHLERCEHRIMESLAWLSDSPLFDLIKQSKDREGPTDHLESACPLNLPLQNNHTAADMYLSPVRSPKKKGSTTRVNSTANAETQATSAFQTQKPLKSTSLSLFYKKVYRLAYLRLNTLCERLLSEHPELEHIIWTLFQHTLQNEYELMRDRHLDQIMMCSMYGICKVKNIDLKFKIIVTAYKDLPHAVQETFKRVLIKEEEYDSIIVFYNSVFMQRLKTNILQYASTRPPTLSPIPHIPRSPYKFPSSPLRIPGGNIYISPLKSPYKISEGLPTPTKMTPRSRILVSIGESFGTSEKFQKINQMVCNSDRVLKRSAEGSNPPKPLKKLRFDIEGSDEADGSKHLPGESKFQQKLAEMTSTRTRMQKQKMNDSMDTSNKEEK,failed
2,MPPSTLGLTPPFDATLLTTRPPCSRRHISRSPGARRPSPGLLTCLQPNVCPRARSAFLAISNGSRQQSGPARADAFHPVSISPFYFYSDSYEDVFMPITTKLKAVSLGVSLALAGLLVGCNQNDSDPLVKDDAYYRGQAEAMVAKLTLGEKLDLLSGPGYGSANGAINVKQDVPGVAGYINGVLRSADGIDIPALKLADGPAGVRINANRDGDSASYYATAWPIGSLLASSWDVKLVKAVGEAMGDEVRQYGVDILLAPGMNIQRNPLNGRNFEYYSEDPLLTGKIGAAMVNGVESNGVGTTIKHYFGNNSETNRNQINDIGEPRTFREIYLRGFQIAVDEAQPWAVMTSYNKVNGTYVNERRDAVTDLLRGEWKFDGLVMSDWFAGDVANNAYKQVLAGQDLIEPGNVKEQLQQSIEHGDLDEAKVNEAAIHILTQVMKSPSYNQLAISNSPDLIAHAKLARQAGAESMVLLRNDAAALPLAASSTLASFGINQINTYKGGTGSGDVNAASTTTIAQGLAARFPVNEALQSYYRDFYENNKVYHEGQFGAKGYYTCAEAPISGDLAALIANAATTQQAAVISIGRQAGEGADRSSGKGDYLLGDDERALIDAVSSAFHAQGKKVVVVLNVNGVIDTAQWSDKVDGILLAYMAGQETGHAVADVLSGAVNPSGKLAQSFPHSYASVPSAGTFPGEDTDGDGEPDDLYYNEGIYVGYRYYSTFEQAVSYPFGFGLSYTSFSYTSPAIASNTLEGGSAGNLVLTATITNTGAVAGKEAAQVYVTAPEVKLKKPLIELKAFAKTAQLAPGASEQLSFTIPASILASFDEASNQWIVEPGRYSAYISPSSDVSASTPVSFTVSKEIVVSNTTPGALALPAGVDPASVTTITR,failed
3,MPQAPTLQSFIAGRWFGQHPAQSLRSAIDGHEVARTHEEAPDFAEALAFGRHQGGKALLALDFQQRAQRLKALALYLSGRKEQLYALSHHSGATRADSWIDIEGGNSTLFSYAGLGARELPSGNLLHEGPAQSLSKLGSFAGSHILVPRGGVAVHINAFNFPIWGMLEKFAPCFLAGMPCIVKPASATSYLTEAAMRLMHESGLLPEGSLQLVIGATGDLLDRLQGQDLVTFTGSASTAGRLRANPNLIRHSVPFNAEADSLNCAILAPDVSPDDEEFELFIKEVAREMTVKAGQKCTAIRRAIIPAKQLDAVATRLRERLSKVVVGDPAVEGVRMGALASHEQQRDVAERLQSLLHSSDLLFGARDGFEPRGTNVSQGAFFAPTLLLARDPMAEGGAHDIEAFGPVSTLMAYDDLDQALELASRGKGSLVASLVTKSPAIAAQVIPRAAAWHGRLLVLDRECAGESTGHGSPLPQLKHGGPGRAGGGEELGGLRAVKHYLQRAAIQGSPSMLAAVTGEYVRGAKVLETEVHPFRRYFQDLRIGESLLTHRRTVTEADLVNFGCLSGDHFYMHFDEIAARESQFGKRIAHGYFVLSAAAGLFVSPGPGPVLANYGLDTLRFITPVGIGDTLQARLTCKRKIDQGKLSPQGTPQGVVAWDVEVSNQLGEVVASYDILTLVAKRTE,failed
4,MPQDPRHPEHQYLDLVKHILENGARRMDRTGTGTLSVFGATMRFSLEDNTFPLLTTRRVFYRGVVEELLFFLRGETDSKVLEKKGVRIWEKNGAKQFLQSVGIDREEGDLGPIYGFQWRHFGARYETSASSYEGKGVDQIASAIAAIRANPASRRIVVSAWNPTDLGSMALPPCHVLFQFNVTDGKLSCAMYQRSGDMGLGVPFNIASYSLLTILVAHLTGLQPGEFVHFLGDAHVYLDHVDSLRQQIQRPPRAFPKLFVSPKGPRTEPEHFQYEDFELVGYDPHPAIKMNMSA,not failed
5,MPQFFKRTSKIQAIIALRSIAIAIQLLLILFVNLGLAYELPWTPLVSVISLEVLFTFGSYLYYSRNHLSEKKASQKAILVQICADIIFLSLLLFFSGGATNAFVSLLLIPIAIAAVTLTPLLLTVVAFLAIASYSILLWSLPMSVMHGNMQGHFIGMGINFLFSALVVAIVVGKMARSINQQELAIAAYRENLLKQEQVTSLGVASAQVTHQLATPIATVQLLADELSEDFPDNEIVLDMQSQLTRCRDSLSEFRAMVFDIKEQVIKAINCQDLFDEITDNVRVNNPEVSLQLQKNSDEHAKDVTIDADAALLPAILNLINNAIRASKANNSNALSLTCQTIENNWQFTIRDYGKGFTLKKLNELGVKPVNSDQGFGMAVFLSHASLERLGGKLALTNHQEGGALVTLSLPISSLTSGNDYA,failed
6,MPQITIIVPVYNAERTLERCVRSIQAQTVVNWELLLIDDGSEDYSSKLCDEYAIQDSRIRVFHQVNGGASSARNVGLEYTKGEWVVFCDSDDWVDSNWLELFKNQIDNGTELIVQGFIPHGNLWQSRTGINFHGNVKTGILKLQEENILGFMCTKMYKREIIEQCGLRFDTELVLREDELFMLQYAEYISTIQCMEEGAYHYDMPDFSTKYGNIDLFNMFLKIYVVLKRIFSGEDNLLLQNYENDLTQSLFHSFVMRHDDRCKKLENYRKEVGKRVLGVKSLSQFSKYILAYVPSFQVAYLLLEAKAKIVKSMQLEHHHHHH,not failed
7,MPQPGLTTPDNDALPWQTTLLLALQHVLVVAATPITSVFLIAKALHFTDTVTASVLSATFLMCGLGAILQSLGVKGVGARLPFIMVPGGAPIAIFVAIALQTNIQTAIGAVILTSLFYFIALPIFRRCLHHFPPFIIGIMLLMVSINLIRLYGGLIIGQPGSADFAHPTSIILSLGTILITLIFALAFSGILRQLAVMFGLLAGTLLGMALGSTDFSGVSHGPLFSFPQLLPFGWPIFDLSASLPLLIYAVISMAEATGQTIATAEIVNSTQNVQQAIPRTIRGDAVMSLLGGIFGTSLIITSGENIGVVRTTNVKSRFVTAAAGGLLILIAIFAPLVRLATCLPGSVVCGTAVIVFSIIGVIGIDMIAREPLHTPGKTYALAMGLAMGMLPILVPGLYQNFPAGVQMVFGNGMAAGTLTAILVNSLFNWSEKRTQARVKS,failed
8,MPQTKQPNFLFLMADQLTAFALRMYGNGVCRTPNLDRLAARSTRFANMYCNFPLCAPSRVAMLTGRLPSSVGVYDNASEFSAEVPTFLHHLALAGYSTILSGKMHFVGPEQHHGFQERLTTDIYPSDFGWTPDWREEIPIAPTGMNMRSVIEAGECRRSMQIDYDDDVVYRGVQKIYDLGRLHRDRPFFLAVSMTHPHNPYVSTREFLDLYRPEDIDMPAVPPIPFAQQDPHSQRLWYMFRQDEYDVSDAHVRAARHAYYAMVSYVDAQVGRMLDALQAMDLDESTVVVFTADHGDMLGERGLWYKWVHFDPAVRIPLLISAPGRTRPAVRHELASLVDIFPTMLELAGVSVPDDGASPPPDGRSLAQGLGVSQDEPTGVVYGEMNGEGAHAPCLAVRQGWWKLVVAEGDPPLLFNLQDDPHELRNLAGQPATRDIERQLTALVQARWDARRLHQDILHSQARRRLVQQSRLQGDFPAWDYQPFTDASRQYVRAGAQSSPALVKGKLRYPPVAPVAPQHPRPARSNLPE,failed
9,MPQTLKPDTPAGTPAAGAVAFRRQVLPQDALLVRRVVESTGFFTPEEADVAQELVDEHLMHGAACGYHFVFATEDDDMAGYACYGPTPATEGTYDLYWIAVAPHRQHSGLGRALLAEVVHDVRLTGGRLLFAETSGIRKYAPTRRFYERAGFSAEAVLKAFYRAGDDKIIYRLEVA,not failed
10,MPQTSSVFRYPGGKTQLYSFVHHLLKINSITDISLEPFAGGAGIPLKLLIDNRINTVWINDYDKAIYSVWDTILNDPVALISLIESVPFDYHSGHKISPEFSISFWKKQKDIYLNNKNHQHSIELAFSTLFLNRTNTSGIITAGPLGGFKQNRKTQIYARFNKETLINKINLIHSFKSQIKLTRLNTLDMIPKIRNSVDPKNSFIFFDPPYFEQGKELYYSSFNEQGHKELANGILSLKQYHWITTYDTAPQIQEDYTMAKQKYEYSLNYSANNKNRGKTAEFMFASPVTRLSSFEKVDLTPLA,failed
11,MPQWRVRMHSGGLELALVLMLAAIVAVPVFKRFGLGAVLAYLVAGVVLGPDGAGVVQDAERISGAAEIGVVMLLFVIGLELSPARLKVMRHSVFGAGATQVLVTAVILGGLLMAAQLGWKSALIVGVALALSSTAVGLQLLAERKALSSDYGRLAFAILLFQDLIAIPLLAAIPLLGGSKNATLQWQDVAKAVAALALVIVCGRFVLRHLFNVVARTRMPEVFTASALLVVLGTAWIMQEAGLSASLGAFIAGVLLADSEFRHELESQIEPFEGLLLGLFFISVGMGIDLHRVVAEPWLIAAGVAILLVVKFSLLVGIGSVAKLPLRSSLMLGSVLWLGGEFAFVVFNEADRVGLLEPANHDRLVAIVGVSMALTPLLLLGMQRILNGPLRARAPKTDRPFDTIDAQTPKVLVAGMGRFGQVVARLLTARHVPFVALEHNPDTVEDLRRFGSQLYYGDPTRPELLRAAGAERIKVFVIAVDDPETNIKTVRLIRRLYPQATVLARARNRQHAWKLMDLGAEPFREVFASSLELSERVLTSLGLGEALAHDHVKRFRQHDEDLLRRQHLVYDDEAKVIQTSRDARADLMNLFEADVRADVDGEPAPTLRER,failed
12,MPRLAISRLWPMLTAVALLSPLATAQQGQTLRAGELTVTLTPTQPDSNGWYRAGRLELQGTDEGIRGVETSRLRGAVLGELSPDGRWLSVLGTGGGYVQLWNVATAERQFTFLAHDKKSYDARLAAFSPDSRRLVFYSYPNELSLWDTATGVRVKLLSDVRKGGWWTADADAVFSPDGKTFVVTGGGGGAQLFDTRTGDLLQTFDRPCQSFGPGSPGGFWRGAVGATFSADGKNVAVLYAGGAARLYGVAGAGALAKASWKLDNFKPSQMRFWAGKLTLNGRELSGKTPNGLSFTLTF,failed
13,MPRVDHGSPQAGPPAPCVGILLAGGQGRRFAAASGGQDKLLARLADGTAVAVRAAAALREATDAVVAVVRPESAVLAALLRGQGCHVLESEQAREGMGASLAAAARFLLAGQVPDMPERADVCLVALADMPWVRRDTLSAVRAAACADGITVPVHQGRRGHPVAFGRSLWGELAALRGDVGARELLRRHRVAAVEVDDPGVAADVDTPGDLAGDRALEHHHHHH,failed
14,MPRYQATLLIELKKGILDPQGRAVEGVLKDLGHPVEEVRVGKVLEIVFPAENLLEAEEKAKAMGALLANPVMEVYALEALKELP,not failed
